Assay results reported in article PMC6335422 (Nature Communications, 2019).
Primed or numbered codes have the meaning given here. Where no end group is shown, it is not given here. SUMO″ = SUMO fusion tag (N-terminal); SUMO = SUMO tag, N-terminal

Key:
Erh1 (Erh1wt) = molecular target: T1, Erh1 (Erh1wt) (Schizosaccharomyces pombe, UniProt G2TRN4); experiment: Isothermal titration calorimetry (ITC), SUMO-tagged Mmi1 peptides titrated into wild-type Erh1; assay type: binding, S. pombe; details: for -TΔS / ΔH (binding enthalpy): Erh1wt; for ΔH (binding enthalpy): single-site model; for binding / affinity for Erh1 (in words): ITC (Supplementary Table 1; Fig. 1d, f), relative to Mmi1^95–122
T1 construct: A region of Erh1 (residues 1–104) was amplified by PCR; made in house; host or cells: Escherichia coli BL21 (Gold)
T1 sequence (G2TRN4 1-104): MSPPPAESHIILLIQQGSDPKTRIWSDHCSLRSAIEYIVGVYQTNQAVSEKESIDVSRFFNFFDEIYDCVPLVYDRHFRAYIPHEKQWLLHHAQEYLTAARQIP
Procedure: The titration protocol consisted of a single initial injection of 1 µl, followed by 19 injections of 2 µl SUMO-tagged Mmi1 peptides into the sample cell containing Erh1 protein. Thermodynamic data were analyzed with a single-site binding model using MicroCal PEAQ-ITC Analysis Software provided by the manufacturer.

[1] = molecular target: T2, Erh1 (residues 1-104), wild type (S. pombe, UniProt G2TRN4 1-104); experiment: ITC; SUMO-tagged Mmi1 peptides titrated into Erh1 in the sample cell; MicroCal iTC200, 293 K; 20 mM Tris-HCl pH 7.5, 150 mM NaCl; single-site binding model; details: both partners purified
T2 construct: Erh1, S. pombe, residues 1-104, amplified from the S. pombe genome, in a modified pET28a vector without thrombin site (p28a); also called Erh1wt; Enhancer of rudimentary homolog 1; source: E. coli BL21 (Gold), purified (Ni-chelating resin, size-exclusion chromatography)
T2 sequence (looked up): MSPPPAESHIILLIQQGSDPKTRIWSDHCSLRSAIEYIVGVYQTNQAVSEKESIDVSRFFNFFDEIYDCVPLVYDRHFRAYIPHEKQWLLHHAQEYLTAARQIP

[2] = ITC, 293 K, 20 mM Tris-HCl pH 7.5, 150 mM NaCl, SUMO-tagged Mmi1 peptide

Molecule	-TΔS (Erh1 (Erh1wt); [2]) [kJ per mol]	ΔH (binding enthalpy) (Erh1 (Erh1wt); [2]) [kJ per mol]	binding / affinity for Erh1 (in words) (Erh1 (Erh1wt))	KD (dissociation constant) (Erh1 (Erh1wt); text and figures 1e, 1f, 3e, Erh1, ITC, 293 K, 20 mM Tris-HCl pH 7.5, 150 mM NaCl, SUMO-tagged Mmi1 peptide)	Kd [1] [µM]	stoichiometry N [1]
Mmi1S100A: Mmi1 peptide mutant S100A ({SUMO}-GKYDFARHCTDYGHSYEWPYFRSLRRES; not fully specified)	6.04	-36.0±3.16				
Mmi1T104A: Mmi1 peptide mutant T104A ({SUMO}-GKYDFSRHCADYGHSYEWPYFRSLRRES; not fully specified)	22.8	-53.7±1.31				
Mmi1^95–111: truncated Mmi1 peptide, residues 95–111 ({SUMO″}-GKYDFSRHCTDYGHSYE; not fully specified)			did not bind at all	no binding		
Mmi1Y110A: Mmi1 peptide mutant Y110A ({SUMO}-GKYDFSRHCTDYGHSAEWPYFRSLRRES; not fully specified)	246	-273±20.3				
Mmi1^106–122: further truncated Mmi1 fragment, residues 106–122 ({SUMO″}-YGHSYEWPYFRSLRRES; not fully specified)	45.5	-73.6±2.69	decreased binding to Erh1			
Mmi1F115A: Mmi1 peptide mutant F115A ({SUMO}-GKYDFSRHCTDYGHSYEWPYARSLRRES; not fully specified)	35.7	-68.0±0.673	reduced affinities for Erh1			
Mmi1H108A: Mmi1 peptide mutant H108A ({SUMO}-GKYDFSRHCTDYGASYEWPYFRSLRRES; not fully specified)	-21.2	-9.97±2.43				
Mmi1Y114A: Mmi1 peptide mutant Y114A ({SUMO}-GKYDFSRHCTDYGHSYEWPAFRSLRRES; not fully specified)	31.1	-61.8±1.07	reduced affinities for Erh1			
Mmi1F99A: Mmi1 peptide mutant F99A ({SUMO}-GKYDASRHCTDYGHSYEWPYFRSLRRES; not fully specified)	8.86	-42.6±1.83	reduced affinities for Erh1			
Mmi1Y106A: Mmi1 peptide mutant Y106A ({SUMO}-GKYDFSRHCTDAGHSYEWPYFRSLRRES; not fully specified)	11.3	-43.8±2.35				
Mmi1Y97A: Mmi1 peptide mutant Y97A ({SUMO}-GKADFSRHCTDYGHSYEWPYFRSLRRES; not fully specified)	13.8	-46.1±1.20	reduced affinities for Erh1			
Mmi1R119A: Mmi1 peptide mutant R119A ({SUMO}-GKYDFSRHCTDYGHSYEWPYFRSLARES; not fully specified)	13.1	-46.3±1.28	reduced			
YGHSYEWPYFRSLRRES (domain or fragment, S. pombe, UniProt O74958 106-122, looked up, source: E. coli BL21 (Gold), purified (Ni-chelating resin, size-exclusion chromatography); not shown: SUMO, N-terminal, kept) [SUMO-tagged Mmi1 106-122]					9.94 ± 1.19	0.89
GKADFSRHCTDYGHSYEWPYFRSLRRES (domain or fragment, S. pombe, UniProt O74958 95-122, looked up, also called Mmi1 Y97A; source: E. coli BL21 (Gold), purified (Ni-chelating resin, size-exclusion chromatography); not shown: SUMO, N-terminal, kept) [SUMO-tagged Mmi1 95-122 Y97A]					1.75 ± 0.317	1.27
GKYDFSRHCTDYGHSYEWPYFRSLARES (domain or fragment, S. pombe, UniProt O74958 95-122, looked up, also called Mmi1 R119A; source: E. coli BL21 (Gold), purified (Ni-chelating resin, size-exclusion chromatography); not shown: SUMO, N-terminal, kept) [SUMO-tagged Mmi1 95-122 R119A]					1.22 ± 0.27	1.12
GKYDFSRHCTDAGHSYEWPYFRSLRRES (domain or fragment, S. pombe, UniProt O74958 95-122, looked up, also called Mmi1 Y106A; source: E. coli BL21 (Gold), purified (Ni-chelating resin, size-exclusion chromatography); not shown: SUMO, N-terminal, kept) [SUMO-tagged Mmi1 95-122 Y106A]					1.63 ± 0.473	1.36
GKYDFSRHCTDYGHSYEWPYARSLRRES (domain or fragment, S. pombe, UniProt O74958 95-122, looked up, also called Mmi1 F115A; source: E. coli BL21 (Gold), purified (Ni-chelating resin, size-exclusion chromatography); not shown: SUMO, N-terminal, kept) [SUMO-tagged Mmi1 95-122 F115A]					1.8 ± 0.121	0.9
GKYDFSRHCTDYGHSAEWPYFRSLRRES (domain or fragment, S. pombe, UniProt O74958 95-122, looked up, also called Mmi1 Y110A; source: E. coli BL21 (Gold), purified (Ni-chelating resin, size-exclusion chromatography); not shown: SUMO, N-terminal, kept) [SUMO-tagged Mmi1 95-122 Y110A]					15 ± 2.71	1
GKYDASRHCTDYGHSYEWPYFRSLRRES (domain or fragment, S. pombe, UniProt O74958 95-122, looked up, also called Mmi1 F99A; source: E. coli BL21 (Gold), purified (Ni-chelating resin, size-exclusion chromatography); not shown: SUMO, N-terminal, kept) [SUMO-tagged Mmi1 95-122 F99A]					0.996 ± 0.355	1.38
GKYDFARHCTDYGHSYEWPYFRSLRRES (domain or fragment, S. pombe, UniProt O74958 95-122, looked up, also called Mmi1 S100A; source: E. coli BL21 (Gold), purified (Ni-chelating resin, size-exclusion chromatography); not shown: SUMO, N-terminal, kept) [SUMO-tagged Mmi1 95-122 S100A]					4.73 ± 1.62	1.36
GKYDFSRHCTDYGASYEWPYFRSLRRES (domain or fragment, S. pombe, UniProt O74958 95-122, looked up, also called Mmi1 H108A; source: E. coli BL21 (Gold), purified (Ni-chelating resin, size-exclusion chromatography); not shown: SUMO, N-terminal, kept) [SUMO-tagged Mmi1 95-122 H108A]					2.78 ± 2.15	1.36
GKYDFSRHCADYGHSYEWPYFRSLRRES (domain or fragment, S. pombe, UniProt O74958 95-122, looked up, also called Mmi1 T104A; source: E. coli BL21 (Gold), purified (Ni-chelating resin, size-exclusion chromatography); not shown: SUMO, N-terminal, kept) [SUMO-tagged Mmi1 95-122 T104A]					3.27 ± 0.425	1.45
GKYDFSRHCTDYGHSYEWPAFRSLRRES (domain or fragment, S. pombe, UniProt O74958 95-122, looked up, also called Mmi1 Y114A; source: E. coli BL21 (Gold), purified (Ni-chelating resin, size-exclusion chromatography); not shown: SUMO, N-terminal, kept) [SUMO-tagged Mmi1 95-122 Y114A]					3.52 ± 0.323	0.97
